Results as given in PMC4789156 (Translational research : the journal of laboratory and …, 2015).

Molecular target: Recombinant human Smad2 with C-terminal MYC/DDK tag (human, UniProt Q15796-1 1-467)
Assay: co-IP

Recombinant human Smad2 with C-terminal MYC/DDK tag, sequence (Q15796 whole entry): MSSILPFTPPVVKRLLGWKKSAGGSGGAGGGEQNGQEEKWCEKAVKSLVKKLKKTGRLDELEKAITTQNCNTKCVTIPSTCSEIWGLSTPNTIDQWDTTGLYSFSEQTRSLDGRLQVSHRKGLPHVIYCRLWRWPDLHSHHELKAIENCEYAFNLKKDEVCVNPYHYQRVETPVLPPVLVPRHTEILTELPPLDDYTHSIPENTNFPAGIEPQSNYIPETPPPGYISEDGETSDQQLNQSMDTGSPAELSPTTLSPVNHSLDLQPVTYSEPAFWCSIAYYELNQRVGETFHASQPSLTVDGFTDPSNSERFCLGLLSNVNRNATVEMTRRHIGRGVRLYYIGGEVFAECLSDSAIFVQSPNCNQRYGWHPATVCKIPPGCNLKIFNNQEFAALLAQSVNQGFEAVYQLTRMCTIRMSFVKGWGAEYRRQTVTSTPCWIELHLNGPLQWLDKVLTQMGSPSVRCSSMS

binding result: binds
Binder: TRPASFWETS [M10 peptide (caspase-3 cleavage product of the hepatocyte growth factor receptor MET)]
